In patent US20090123940A1, “MOLECULES INVOLVED IN SYNAPTOGENESIS AND USES THEREFOR” (THE JOHNS HOPKINS UNIVERSITY, priority 2007, published 2009):
Marks after values point to notes of the source that are not given here.

How the values were obtained:
[1] = molecular target: T1, HA GluR1 surface diffusion (Homo sapiens, UniProt P42261); assay: Single Quantum Dot Tracking of HA-tagged receptors on hippocampal neurons; assay type: cell-based, mouse
T1 construct: expressed in transfected cells; host or cells: dissociated mouse hippocampal neurons (P1-3 pups)
Description: (§1) Single Quantum Dot (QD) Tracking. Hippocampal neurons were prepared from postnatal days 1-3 mouse pups and cultured in Banker Style conditions to 6 D. I. V., 8 D. I. V., or 11 D. I. V. Cultured hippocampal neurons were transfected as above. 0.5 μL of QD 655 mouse IgG (QuantumDot Corporation) was incubated with 0.8 μg of HA antibody (Santa Cruz) in a 20 μL volume of PBS for 1 hour at room temperature. Neurons were incubated in a 1:500 dilution of this QD solution for 15 minutes at 37° C., 5% CO2. After brief washes with culture media, the neurons were mounted on a live imaging chamber with culture media/10 mM Hepes. Transfected neurons were identified based on GFP fluorescence. 100 millisecond exposure images were collected from neurons at a frequency of 2.67 Hz for 60 seconds with a coolsnap HQ (Photometrix). The graphical and numerical representation of the trajectory of each QD was extracted from each stack of images using the Motion Analysis Package of Metamorph (Universal Imaging Corporation). The numerical representation of the trajectory was used to calculate a diffusion coefficient using MSD software. Analysis was performed blinded.
(§2) Narp reduces surface diffusion of GluR1 but not GluR1ΔNAR1. GluR1ΔNAR1 was used to examine the hypothesis that Narp and NP1 function to limit the diffusion of receptors, and thereby recruit GluR1 to synapses. As part of a validation of GluR1ΔNAR1 for cell biological studies it was confirmed that it retained agonist-dependent channel activity. […] The mobility of HA GluR1 relative to HA GluR1ΔNAR1 on the surface of neuronal dendrites were compared using 5 nm fluorescent Quantum Dots (QDs) and Single Quantum Dot Tracking (SQDT). Dissociated hippocampal cultures (DIV 6) were transfected with HA GluR1-IRES2-GFP or HA-GluR1ΔNAR1-IRES2-GFP. […] QD-HA-GluR1 and QD-HA-GluR1ΔNAR1 were visualized by live, time-lapse fluorescence imaging. The trajectories of QD-coupled receptors were determined by the position of the QD in each frame, and the receptor diffusion coefficients were calculated from QD trajectories over multiple trials. […]

[2] = molecular target: T2, HA GluR1 surface diffusion (Homo sapiens, UniProt P42261, A320G/C323G/D322G/DEL281-317/N319G); assay: as above; assay type: cell-based, mouse; settings: 7 D. I. V., Narp transgene
T2 construct: expressed in transfected cells; host or cells: dissociated mouse hippocampal neurons (P1-3 pups)
Description: as §1, §2

cultured spinal neurons = assay: Narp overexpression in transfected cultured spinal neurons; assay type: cell-based
Description: In order to characterize the synaptic targeting of Narp in neurons, a C-terminal myc-tagged version of Narp (designated myc-Narp) was transfected into cultured spinal neurons (Dong et al., Nature 386:279-84, 1997). After 72 hours of expression, live staining with an anti-myc (mouse) antibody, followed by a FITC labeled anti-mouse secondary, was used to reveal the surface distribution of the transfected Narp. Subsequent staining of the same cells, after fixation and permeabilization, with an AMCA labeled anti-myc (rabbit) antibody was used to identify transfected neurons and their axons and dendrites, while GluR1 and GAD staining were used to identify excitatory and inhibitory synapses, respectively.
Given the presence of Narp on both pre and postsynaptic processes and the biochemical propensity of pentraxins to form head to head multimeric aggregates (Emsley et al., Nature 367, 338-45, 1994; Gewurz et al., Curr. Opin. Immunol. 7:54-64, 1995; Bottazzi et al., J. Biol. Chem. 272:32817-23, 1997), the possibility that Narp may function to facilitate the formation of excitatory synapses was explored. Thus, the number of synaptic GluR1 clusters (i.e., GluR1 clusters associated with synaptophysin staining) in transfected neurons over expressing myc-Narp was compared with the number of synaptic GluR1 clusters in untransfected neurons or in neurons transfected with a control plasmid containing the C-terminus of the NMDA receptor subunit NR1A (NR1CT).

[3] = test system: GluR1 on cultured spinal neurons; assay: Co-culture of myc-Narp expressing 293 cells with spinal neurons; assay type: cell-based
Description: The neurons and transfected HEK-293 cells were cocultured for 48 hours and then fixed and stained for myc-Narp, GluR1 and synapsin. When contacts between myc-Narp expressing 293 cells and GluR1 expressing spinal neurons were examined for overlapping myc-Narp/GluR1 clusters, 64% (82/128) of the myc-Narp clusters in contact with the neuron overlapped with neuronal GluR1 clusters (mean of 2.6+/−1.5 overlapping myc-Narp/GluR1 clusters per 293-neuron contact).

[4] = test system: GluR1 expressing 293 cells; assay: Co-culture of separately transfected 293 cells, intercellular clustering; assay type: cell-based
Excerpt: To evaluate whether Narp could mediate intercellular aggregation of GluR1, similar to that expected at a synapse, myc-tagged Narp and GluR1 were expressed separately in 293 cells and subsequently co-cultured together. Under these conditions, surface Narp clusters on one cell could induce large surface GluR1 aggregates on another. In a total of 109 contacts between a GluR1 expressing transfected cell and a Narp expressing cell, there was a mean of 1.2+/−0.75 large overlapping GluR1/myc-Narp clusters at these sites of contact. […] Moreover, the number of GluR1 clusters at sites of contact with non-Narp expressing 293 cells was extremely low [0.07 R1 clusters per contact with a GluR2 expressing cell (n=76); 0.03 R1 clusters per contact with a Pick1/GluR2 expressing cell (n=58)]. The interaction between GluR1 and Narp required contact between the heterologous cells, as there was no evidence that Narp could diffuse from one cell and induce GluR1 clusters on another.

[5] = transfected neurons, +/- S.D., 5 experiments

T1 sequence (P42261 19-906): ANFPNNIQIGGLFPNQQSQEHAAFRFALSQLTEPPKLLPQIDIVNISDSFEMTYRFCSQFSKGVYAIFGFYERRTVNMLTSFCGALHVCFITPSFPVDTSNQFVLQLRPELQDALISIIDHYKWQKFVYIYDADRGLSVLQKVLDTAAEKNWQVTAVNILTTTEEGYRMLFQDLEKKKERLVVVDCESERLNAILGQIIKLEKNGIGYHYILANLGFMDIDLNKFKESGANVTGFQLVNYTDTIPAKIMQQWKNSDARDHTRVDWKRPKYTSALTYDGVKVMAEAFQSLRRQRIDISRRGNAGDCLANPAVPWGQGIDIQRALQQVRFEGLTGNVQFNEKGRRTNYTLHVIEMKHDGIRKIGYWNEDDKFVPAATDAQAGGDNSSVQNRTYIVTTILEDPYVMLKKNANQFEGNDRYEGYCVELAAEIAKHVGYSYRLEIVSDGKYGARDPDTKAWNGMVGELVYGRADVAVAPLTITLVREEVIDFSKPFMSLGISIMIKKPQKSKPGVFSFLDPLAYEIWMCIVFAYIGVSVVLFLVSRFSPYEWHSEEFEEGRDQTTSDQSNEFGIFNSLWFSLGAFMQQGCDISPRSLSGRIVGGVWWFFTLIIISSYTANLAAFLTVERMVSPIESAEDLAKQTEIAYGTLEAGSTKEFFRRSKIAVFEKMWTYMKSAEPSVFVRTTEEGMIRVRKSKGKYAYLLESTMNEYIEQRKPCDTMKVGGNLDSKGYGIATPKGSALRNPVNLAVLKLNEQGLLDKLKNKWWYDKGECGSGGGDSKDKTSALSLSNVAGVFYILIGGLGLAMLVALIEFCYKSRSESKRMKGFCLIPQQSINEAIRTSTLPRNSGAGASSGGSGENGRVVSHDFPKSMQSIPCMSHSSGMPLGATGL
T2 sequence (P42261 with tags, fused parts or gaps DEL281-317/N319G/A320G/D322G/C323G): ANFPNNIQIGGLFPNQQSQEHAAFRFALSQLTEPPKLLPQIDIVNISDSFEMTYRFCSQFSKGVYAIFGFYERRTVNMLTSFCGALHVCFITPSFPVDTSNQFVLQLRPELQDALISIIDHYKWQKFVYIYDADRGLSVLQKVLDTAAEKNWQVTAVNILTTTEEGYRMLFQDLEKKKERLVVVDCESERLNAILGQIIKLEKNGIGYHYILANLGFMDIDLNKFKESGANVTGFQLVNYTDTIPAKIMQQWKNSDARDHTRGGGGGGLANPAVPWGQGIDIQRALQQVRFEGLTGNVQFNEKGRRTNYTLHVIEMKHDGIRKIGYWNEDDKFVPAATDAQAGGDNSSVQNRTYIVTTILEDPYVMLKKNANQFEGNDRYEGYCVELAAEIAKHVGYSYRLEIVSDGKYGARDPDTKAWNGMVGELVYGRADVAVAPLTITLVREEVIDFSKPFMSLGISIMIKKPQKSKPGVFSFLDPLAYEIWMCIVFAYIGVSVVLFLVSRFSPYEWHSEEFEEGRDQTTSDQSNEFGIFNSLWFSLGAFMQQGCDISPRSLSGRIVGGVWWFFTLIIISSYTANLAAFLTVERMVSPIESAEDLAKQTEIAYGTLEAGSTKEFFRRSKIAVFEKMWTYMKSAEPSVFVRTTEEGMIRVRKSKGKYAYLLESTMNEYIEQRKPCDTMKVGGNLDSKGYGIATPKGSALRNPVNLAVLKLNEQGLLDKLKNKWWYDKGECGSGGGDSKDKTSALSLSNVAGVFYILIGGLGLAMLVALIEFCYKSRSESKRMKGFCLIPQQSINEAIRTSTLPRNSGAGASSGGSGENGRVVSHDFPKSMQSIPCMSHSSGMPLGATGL

B1: Narp: Neuronal activity regulated pentraxin (SEQ ID NO:2), expressed by transfection, also as C-terminal myc-tagged version (protein, listed as Rattus norvegicus)
chain: MLALLTAGVALAVAAGQAQDNPIPGSRFVCTALPPEAARAGCPLPAMPMQGGALSPEEELRAAVLHWRETVVQQKETLGAQREAIRELTSKLARCEGLAGGKARGTGATGKDTMGDLPRDPGHVVEQLSRSLQTLKDRLESLELQLHTNASNAGLPSDFREVLQRRLGELERQLLRKVAELEDEKSLLHNETSAHRQKTENTLNALLQRVTELERGNSAFKSPDAFKVSLPLRTNYLYGKIKKTLPELYAFTICLWLRSSASPGIGTPFSYAVPGQANEIVLIEWGNNPIELLINDKVAQLPLFVSDGKWHHICITWTTRDGMWEAFQDGEKLGTGENLAPWHPIKPGGVLILGQEQDTVGGRFDATQAFVGELSQFNIWDRVLRAQEIINIANCSTNMPGNIIPWVDNNVDVFGGASKWPVETCEERLLDL
modifications: optional C-terminal myc tag
- slowing of HA GluR1 average diffusion rate versus absence of Narp transgene ([1]; 7 D. I. V.): 58%
- slowing of HA GluR1 diffusion in the presence of the Narp transgene ([1]; 9 D. I. V.): 44%
- HA-GluR1ΔNAR1 average diffusion rate [2]: not significantly altered
- increase in number of synaptic GluR1 clusters compared to either control (cultured spinal neurons; five transfection experiments, p<0.01): 1.9 fold
- Synaptic GluR1 Clusters (cultured spinal neurons; [5]): 13.0 +/− 3.8 **
- Synaptophysin Clusters (cultured spinal neurons; [5]): 16.0 +/− 4.6 *
- Neuritic Length (cultured spinal neurons; transfected neurons, permeablized myc staining at 100X, 3 experiments): 225 µm
- GAD Clusters (cultured spinal neurons; transfected neurons, separate series of 3 experiments): 5.9 +/− 3.9
- myc-Narp clusters in contact with the neuron overlapping with neuronal GluR1 clusters ([3]; 48 hours coculture): 64%
- overlapping myc-Narp/GluR1 clusters per 293-neuron contact ([3]; 48 hours coculture): 2.6+/−1.5
- bioactivity of soluble Narp collected from the media (binding to transfected 293 cells) ([3]; soluble secreted form): no bioactivity
- large overlapping GluR1/myc-Narp clusters at sites of contact ([4]; 109 contacts between a GluR1 expressing cell and a Narp expressing cell): 1.2+/−0.75
- coclusters of NR1 and NR2A ([4]; n=32 contacts): 0
- clusters of EAAC1 at sites of contact ([4]; n=121): 0.04+/−0.05
- intercellular myc-Narp*GluR1 co-clusters ([4]; untagged Narp co-expressed with GluR1, co-cultured with cells expressing only myc-tagged Narp, n=124): 2.6+/−1.4
